We go through 3 molecules from publication doi:10.1101/2024.04.19.590371 (bioRxiv, 2024).

The target in one assay is T1, His+SUMO-atDjA2 (Arabidopsis thaliana, UniProt P42825 1-419).
T1 sequence (looked up): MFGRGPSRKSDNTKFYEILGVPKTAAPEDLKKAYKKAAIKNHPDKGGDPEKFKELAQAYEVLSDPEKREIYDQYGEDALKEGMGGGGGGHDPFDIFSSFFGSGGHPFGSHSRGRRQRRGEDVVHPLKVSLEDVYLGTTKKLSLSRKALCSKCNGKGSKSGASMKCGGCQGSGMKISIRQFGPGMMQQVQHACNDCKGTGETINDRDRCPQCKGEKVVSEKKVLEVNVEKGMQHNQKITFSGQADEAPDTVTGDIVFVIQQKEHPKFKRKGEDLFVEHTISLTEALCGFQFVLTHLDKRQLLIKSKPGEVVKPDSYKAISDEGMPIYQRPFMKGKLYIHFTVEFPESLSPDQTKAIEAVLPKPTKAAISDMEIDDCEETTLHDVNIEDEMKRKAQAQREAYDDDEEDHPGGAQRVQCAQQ
The assay is described as follows: pull-down.

A further assay concerns the target T2, His+SUMO-atDjA1 (Arabidopsis thaliana, UniProt Q94AW8 1-420).
T2 sequence (looked up): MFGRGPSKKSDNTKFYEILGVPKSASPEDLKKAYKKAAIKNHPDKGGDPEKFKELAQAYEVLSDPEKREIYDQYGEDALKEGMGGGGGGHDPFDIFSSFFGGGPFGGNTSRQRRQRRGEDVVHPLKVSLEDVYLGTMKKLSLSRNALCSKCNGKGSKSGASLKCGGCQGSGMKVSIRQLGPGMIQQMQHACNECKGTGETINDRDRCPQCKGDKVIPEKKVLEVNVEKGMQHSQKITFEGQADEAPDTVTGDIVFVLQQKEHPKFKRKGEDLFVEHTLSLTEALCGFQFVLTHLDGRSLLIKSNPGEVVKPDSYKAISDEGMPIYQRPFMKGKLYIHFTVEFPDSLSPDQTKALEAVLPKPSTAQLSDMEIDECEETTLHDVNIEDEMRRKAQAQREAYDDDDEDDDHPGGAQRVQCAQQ
The experiment in a line: pull-down.

B1: GST-OM64 (cytosolic domain, aa 488-586) (domain or fragment, Arabidopsis thaliana, UniProt F4KCL7 488-586, looked up)
chain: SEVMKEKGNAAYKGKQWNKAVNFYTEAIKLNGANATYYCNRAAAFLELCCFQQAEQDCTKAMLIDKKNVKAYLRRGTARESLVRYKEAAADFRHALVLE
Regarding B1, the binding result with His+SUMO-atDjA2 was “binds”.

B2: GST-Tom9.2 (cytosolic domain, aa 1-53) (domain or fragment, Arabidopsis thaliana, UniProt Q9FNC9 1-53, looked up)
chain: MAAKRIGAGKSGGGDPNILARISNSEIVSQGRRAAGDAVEVSKKLLRSTGKAA
With B2, the binding result with His+SUMO-atDjA1 was “binds”.

B3: GST-Metaxin (cytosolic domain, aa 1-191) (domain or fragment, Arabidopsis thaliana, UniProt O64471 1-191, looked up)
chain: MEGDQETNVYTLVARKPSFDLPTACPNCLPAYIYLKLAQLPFELAFNSTFPDSDELPYFESDTYVAYNNEDGGVIEKLKKDGIVNLDSQLQSLSDYLSLKALIVSWLEEALTYEIWVGTEGISTSKIYYSDLPWVISKVLFYKQTYLAKNRLGITKENAEQREKQIYKRASEAYEALSTRLGEQKFLFEDR
On to B3, for which the binding result with His+SUMO-atDjA1 and with His+SUMO-atDjA2 was “binds” in each case.
